Test [1] has as its target T1, Venus-tagged full length GPR158 (mGlyR) transiently expressed on HEK293 cells (human, UniProt Q5T848 24-1215).
T1 construct: This is the flow cytometry target; not shown: Venus tag
T1 sequence: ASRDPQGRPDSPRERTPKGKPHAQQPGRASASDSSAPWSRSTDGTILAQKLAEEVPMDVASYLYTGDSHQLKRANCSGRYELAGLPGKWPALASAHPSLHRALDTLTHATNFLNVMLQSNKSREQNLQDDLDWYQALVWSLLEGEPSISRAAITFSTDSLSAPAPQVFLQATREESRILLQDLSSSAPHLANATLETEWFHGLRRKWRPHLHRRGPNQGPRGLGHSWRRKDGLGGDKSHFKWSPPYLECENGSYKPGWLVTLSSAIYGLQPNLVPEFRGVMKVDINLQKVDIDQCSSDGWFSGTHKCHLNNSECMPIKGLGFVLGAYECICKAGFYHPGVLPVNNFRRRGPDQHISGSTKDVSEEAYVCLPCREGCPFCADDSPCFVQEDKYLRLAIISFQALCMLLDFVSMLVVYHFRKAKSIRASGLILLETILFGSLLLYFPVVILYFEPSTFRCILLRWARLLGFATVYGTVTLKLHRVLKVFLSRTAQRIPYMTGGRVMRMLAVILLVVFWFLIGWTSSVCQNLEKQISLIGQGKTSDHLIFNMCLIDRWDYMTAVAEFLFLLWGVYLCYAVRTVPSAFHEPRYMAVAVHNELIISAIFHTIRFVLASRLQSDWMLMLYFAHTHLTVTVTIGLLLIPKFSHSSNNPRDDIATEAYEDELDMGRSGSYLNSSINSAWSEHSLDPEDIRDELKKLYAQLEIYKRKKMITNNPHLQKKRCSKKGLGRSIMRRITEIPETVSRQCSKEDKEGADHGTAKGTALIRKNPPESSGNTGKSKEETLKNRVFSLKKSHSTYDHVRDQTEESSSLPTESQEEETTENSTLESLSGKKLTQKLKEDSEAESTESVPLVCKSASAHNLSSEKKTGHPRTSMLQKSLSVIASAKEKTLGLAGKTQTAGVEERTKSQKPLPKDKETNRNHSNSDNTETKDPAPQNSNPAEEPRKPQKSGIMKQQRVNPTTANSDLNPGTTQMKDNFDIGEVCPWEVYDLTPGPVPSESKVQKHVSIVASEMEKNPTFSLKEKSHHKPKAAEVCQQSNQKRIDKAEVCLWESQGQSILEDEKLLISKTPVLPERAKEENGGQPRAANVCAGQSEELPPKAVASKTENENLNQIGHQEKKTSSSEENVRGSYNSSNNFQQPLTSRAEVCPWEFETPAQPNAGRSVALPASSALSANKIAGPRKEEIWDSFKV
Put plainly: flow cytometry titration on GPR158-transfected HEK293 cells.

In test [2] the target is T1, Venus-tagged full length GPR158 (mGlyR) …. As to the kind of experiment: flow cytometry, % of positive cells against Log [Nanobody] (M), cells expressing mGlyR, n=3, detection with anti-myc-APC. For orientation: In flow cytometry, cells or beads pass a laser one at a time.
Experimental: Error bars are SEM values (n=3 independent experiments).
HEK293FT cells were cultured in 6 well plates at the density of 1.10⁶ per well and transfected with 2 μg of cDNA of mGlyR or empty pcDNA3.1+ in control experiments, using Metafectene Pro. 48 h after transfection, cells were mechanically detached pipetting up-down, washed in PBS supplemented with 0.1% BSA, counted and incubated in PBS-0.1% BSA for 1 h at 4° C. under rotation. […] After 3 washes, cells were analyzed in LSR-II BD flow cytometer. Gating strategy to sort individual cells to debris and doublets was used.
The target of test [3] is T2, mGlyR (GPR158) co-expressed in HEK293FT cells in the BRET-based GAP assay (human, UniProt Q5T848 24-1215).
T2 sequence: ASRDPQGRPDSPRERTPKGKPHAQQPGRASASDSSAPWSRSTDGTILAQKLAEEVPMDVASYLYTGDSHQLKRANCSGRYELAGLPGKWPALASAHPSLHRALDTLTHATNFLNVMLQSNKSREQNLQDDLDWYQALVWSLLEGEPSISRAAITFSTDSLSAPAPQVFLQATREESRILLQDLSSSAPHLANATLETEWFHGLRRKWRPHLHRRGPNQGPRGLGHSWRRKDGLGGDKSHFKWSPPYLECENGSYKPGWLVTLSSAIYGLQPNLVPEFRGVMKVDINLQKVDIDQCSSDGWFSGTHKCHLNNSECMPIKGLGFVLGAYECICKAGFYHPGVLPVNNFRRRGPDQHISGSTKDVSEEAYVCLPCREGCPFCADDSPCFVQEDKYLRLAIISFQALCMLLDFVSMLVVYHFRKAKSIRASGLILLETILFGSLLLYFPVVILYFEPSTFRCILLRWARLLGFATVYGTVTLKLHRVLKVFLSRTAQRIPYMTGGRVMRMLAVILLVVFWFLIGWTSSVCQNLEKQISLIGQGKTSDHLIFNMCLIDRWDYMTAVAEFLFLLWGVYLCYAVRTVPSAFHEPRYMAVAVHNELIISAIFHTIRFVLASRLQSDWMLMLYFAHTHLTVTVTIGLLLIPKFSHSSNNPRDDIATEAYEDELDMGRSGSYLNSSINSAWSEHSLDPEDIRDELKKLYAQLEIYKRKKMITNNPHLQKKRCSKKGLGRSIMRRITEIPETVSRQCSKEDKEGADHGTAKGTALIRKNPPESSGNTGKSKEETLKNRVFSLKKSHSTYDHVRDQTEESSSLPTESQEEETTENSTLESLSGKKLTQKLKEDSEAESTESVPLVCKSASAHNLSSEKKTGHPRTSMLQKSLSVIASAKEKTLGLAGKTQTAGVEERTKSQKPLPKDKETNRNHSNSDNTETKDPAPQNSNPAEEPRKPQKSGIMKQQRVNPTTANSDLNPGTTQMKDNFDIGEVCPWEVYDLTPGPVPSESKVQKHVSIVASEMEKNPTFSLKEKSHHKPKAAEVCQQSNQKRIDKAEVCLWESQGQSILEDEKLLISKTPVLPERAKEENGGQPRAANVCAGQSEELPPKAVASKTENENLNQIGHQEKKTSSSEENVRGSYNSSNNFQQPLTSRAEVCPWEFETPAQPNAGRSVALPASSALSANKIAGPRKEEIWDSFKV
Put plainly: cell-based or functional assay.

B1: llama nanobody Nb20 (Nanobody-20), purified recombinant, myc- and His-tagged (VHH, not shown: small tags and cut ends)
VHH: EVQLQESGGGLVQAGGSLRLSCAASGSIGNIYIMGWYRQTPGPQRELVATIRTVRWTKYEDYADSVKGRFTISDDDAKNTVYLQMNSLKPEDTAVYYCNYKDYNAPSDGYWGQGTQVTVSS
notes: Expressed in E. coli BL21 DE3 from pET28a and purified on Ni-IDA; Detected by an anti-myc-APC antibody in flow cytometry; The two passages disagree on where the tags sit; also called clone number 20
As for B1, the EC50 in test [1] is around 10 nM. In test [2], a half-maximal response (EC50) required 9.9 nM. Further, in test [3], the “IC50, dose-response of changes in GAP activity (BRET-based GAP assay)” value is around 6 nM and the “IC50, inhibition of GAP activity of GPR158 via RGS7/Gβ5 (BRET-based GAP assay)” value is 5.77 nM.

The EC50 is the concentration giving half of the maximal effect. Low values mean an effect from little substance, high ones a need for much substance.
